The target in experiment [1] is T1, CD123-Fc (Sino Biological) (human, UniProt P26951 19-305).
T1 construct: Bought reagent; not shown: Fc part of the bought fusion (detected with anti-human Fc HRP)
T1 sequence: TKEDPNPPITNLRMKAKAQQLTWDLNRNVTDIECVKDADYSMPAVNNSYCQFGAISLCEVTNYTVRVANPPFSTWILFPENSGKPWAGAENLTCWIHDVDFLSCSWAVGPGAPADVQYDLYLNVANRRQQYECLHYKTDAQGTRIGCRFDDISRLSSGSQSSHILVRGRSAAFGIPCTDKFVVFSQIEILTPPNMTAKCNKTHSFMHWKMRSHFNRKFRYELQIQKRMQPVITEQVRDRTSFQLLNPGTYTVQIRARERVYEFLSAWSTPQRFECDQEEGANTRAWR
The experiment is described as follows: ELISA, serial dilution of MBP fusion normalized for protein concentration; readout CD123-Fc Binding (A450).

The target in experiment [2] is T1, CD123-Fc (Sino Biological). The description is as above. The source holds these as a separate data set.
For experiment [3], the target named is T1, CD123-Fc (Sino Biological). The experiment is described as follows: BLI (Octet RED386): CD123-Fc captured on AHC sensor, Adapter in solution 500-0.69 nM, 25 C, global 1:1 fit. (In BLI a coated tip is dipped into the sample, and binding shifts an interference pattern.)

Where a chain is given by its changes, count along the chain named. Names and notes keep the numbering of the source. Read-outs that look alike come from different tables or passages of the source.

Experimental findings from patent US20230250185A1 (ARCELLX, published 2023) are described below.

B1: 8W9C D domain as MBP fusion (designed binder)
chain: MGSWDEFGRRLYAIEWRLYALGGSEAELAAFEKEIAAFESELQAYKGKGNPEVEKLREIAAVIRSNLQAYRHN
notes: Expressed in E. coli and assayed from leak-out supernatant; also called wild-type (8W9C); parental 8W9C; not shown: limits, linker and position relative to the D dom
Usually EC50 stands for the concentration at which the effect is half-maximal. In the case of B1, the figures for the EC50 in experiment [1] and in experiment [2] were 7.47 ng/mL and 6.97 ng/mL, respectively.

B2: Adapter protein comprising the 8W9C D domain and P26(Q26-V229) AFP polypeptide (designed binder)
chain: B1 chain
For orientation: Kd means the concentration at which binding is half-saturated. A higher Kd goes with weaker binding. In general, koff refers to the rate constant with which the complex falls apart. Usually kon stands for the rate constant with which the complex forms. A low value points to slow association. Take B2: in experiment [3], binding was put at a Kd of 5.2 nM, the koff is 0.000924 s⁻¹ and the kon stood at 177000 M⁻¹ s⁻¹.

B3: Adapter protein comprising the 1F9I D domain and P26(Q26-V229) AFP polypeptide (designed binder)
chain: B1 chain with R17Q, L21Q, S24T, I59L, S65E
Regarding B3, in experiment [3], the dissociation constant Kd is 7.6 nM, the koff was 0.000646 s⁻¹ and the kon is 85200 M⁻¹ s⁻¹.

B4: 6Z5E D domain as MBP fusion (designed binder, not shown: large carriers; small tags and cut ends)
chain: B1 chain with N50S
notes: also called 8W9C (N50S)
B4: it took 3.26 ng/mL to reach a half-maximal effect in experiment [2] (EC50).

B5: 1J1K D domain as MBP fusion (designed binder, not shown: large carriers; small tags and cut ends)
chain: B1 chain with G8S
notes: also called 8W9C (G8S)
Consider B5, for which a half-maximal response in experiment [1] (EC50) required 3.69 ng/mL.

B6: 4H2H D domain as MBP fusion (designed binder, not shown: large carriers; small tags and cut ends)
chain: B1 chain with K48I, K55N
notes: also called 8W9C (K48I, K55N)
In turn, B6 returned an EC50 in experiment [2] of 5.4 ng/mL.

B7: 5S5W D domain as MBP fusion (designed binder)
chain: MGSWSEFNMRLDAIYERLTALGGSEAELAAFEKEIAAFESELQAYKGKGNPEVEWLRHSAARIRLELQAYRHN
notes: not shown: limits, linker and position relative to the D dom
In the case of B7, the 50% effective concentration (EC50) in experiment [1] was found to be 68.7 ng/mL; in experiment [2] it was 57.9 ng/mL.

B8: 5B7L D domain as MBP fusion (designed binder)
chain: B7 chain with S5I, T19V, H58K, S59V, R62N
notes: as for B7
B8: the figures for the half-maximal effective concentration (EC50) in experiment [1] and in experiment [2] were 5.12 ng/mL and 3.72 ng/mL, respectively.
